Key:
[1] = target: HA of B/Ohio/1/05 (influenza B virus B/Ohio/1/05); assay: ELISA on HA
[2] = target: HA of H3N2 A/Brisbane/10/07 (influenza A virus H3N2 A/Brisbane/10/07); assay: ELISA on HA
[3] = target: HA of H1N1 A/Brisbane/59/07 (influenza A virus H1N1 A/Brisbane/59/07); assay: ELISA on recombinant or purified HA
[4] = target: HA of H3N2 A/Brisbane/10/07 (influenza A virus H3N2 A/Brisbane/10/07); assay: ELISA on recombinant or purified HA
[5] = target: HA of H3N2 A/New York/55/04 (influenza A virus H3N2 A/New York/55/04); assay: ELISA on recombinant or purified HA
[6] = target: HA of H3N2 A/Wyoming/3/03 (influenza A virus H3N2 A/Wyoming/3/03); assay: ELISA on recombinant or purified HA

B1: FI6 variant 2 (antibody, V domains shown)
VH: QVQLVQSGGGVVQPGRSLRLSCVASGFTFSTYAMHWVRQAPGRGLEWVAVISYDGNYKYYADSVKGRFSISRDNSNNTLHLEMNTLRTEDTALYYCAKDSQLRSLLYFEWLSQGYFDPWGQGTLVTVTS
VL: DIQMTQSPDSLAVSLGARATINCKSSQSVTFNYKNYLAWYQQKPGQPPKVLIYWASARESGVPDRFSGSGSGTDFTLTISSLQAEDVAVYYCQQHYRTPPTFGQGTKVEIK
- EC50 [1]: > 20 µg/mL
- Binding to HA by ELISA (% of subtype specific control antibodies) [2]: 68.5%
- EC50 [3]: 0.015 µg/mL
- EC50 [4]: 0.041 µg/mL
- EC50 [5]: 0.032 µg/mL
- EC50 [6]: 0.019 µg/mL

B2: FI28 variant 1 (antibody, V domains shown)
VH: EVQLVESGGGAVQPGESLKLSCAASGFTFSNYGMHWVRQAPGKGLEWVAVISYDGSNKYYADSVKGRFTISRDNSKDTLYLQMNSLRAEDTALFYCAKERPLRLLRYFDWLSGGANDYWGQGTLVTVSS
VL: DIVMTQSPDSLAVSLGERATINCKSSQSVLYSSNNKNYLAWYQQKPGQPPKLLIDWASTRESGVPDRFSGSGSGTDFTLTISNLQVEDVAVYYCQQYYRSPSFGQGTKLEIK
- Binding to HA by ELISA (% of subtype specific control antibodies) [2]: 1.3%

— patent US20170204167A1
